Measured values as given in paper doi:10.1101/2020.07.22.215871.

Target: T1, Tb927.11.16120-His (r16120) (Trypanosoma brucei, UniProt Q381H4 1-610)
T1 sequence: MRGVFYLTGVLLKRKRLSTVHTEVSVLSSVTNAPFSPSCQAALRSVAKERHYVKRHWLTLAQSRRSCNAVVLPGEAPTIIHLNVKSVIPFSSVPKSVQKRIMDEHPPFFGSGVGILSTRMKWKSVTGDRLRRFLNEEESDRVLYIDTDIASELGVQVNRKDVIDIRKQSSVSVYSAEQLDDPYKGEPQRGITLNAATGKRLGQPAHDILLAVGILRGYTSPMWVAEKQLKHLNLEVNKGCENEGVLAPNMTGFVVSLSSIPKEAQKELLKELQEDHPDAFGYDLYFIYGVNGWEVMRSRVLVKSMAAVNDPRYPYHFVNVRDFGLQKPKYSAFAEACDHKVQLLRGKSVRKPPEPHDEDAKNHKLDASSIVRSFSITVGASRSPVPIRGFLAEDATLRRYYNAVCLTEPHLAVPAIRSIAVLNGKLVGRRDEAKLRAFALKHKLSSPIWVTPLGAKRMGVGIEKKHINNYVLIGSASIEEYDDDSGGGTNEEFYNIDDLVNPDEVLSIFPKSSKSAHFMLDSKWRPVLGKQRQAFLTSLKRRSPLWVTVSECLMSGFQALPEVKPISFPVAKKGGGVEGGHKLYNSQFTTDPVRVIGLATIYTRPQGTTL
Assay: EMSA

B1: 73 bp conserved minicircle sequence (dsDNA)
DNA 1: GAAAAAACGGAAAATCTTATGGGCGTGCAAAAATACACATACACAAATCCCGTGCTTATTTTAGGCCATTTTT
DNA 2: AAAAATGGCCTAAAATAAGCACGGGATTTGTGTATGTGTATTTTTGCACGCCCATAAGATTTTCCGTTTTTTC
binding result: binds
